Measurements: the supplement of paper PMC9170038

Experiments:
Settings in all cases: FMN input: 0 or 200 uM; Eterna round: R93 (includes R88 designs)
MS2 coat protein [1] = assay: apparent KD of MS2 coat protein, switch ON state; designed switch direction (-1 OFF switch, 1 ON switch): 1; higher = weaker reporter binding
Method in brief: (§1)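 The buffer was 100 mM Tris-HCl pH 7.5 with 80 mM KCl and 4 mM MgCl2, used without or with constant ligand. In it, RNA switches transcribed on-chip from Illumina sequencing clusters were titrated with SNAP-549-labelled MS2 coat protein in twofold steps from 0.7 or 1.5 nM to 3 µM. Apparent KD for each design is the median of its normalised cluster binding-curve fits.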

MS2 coat protein [2] = assay: apparent KD of MS2 coat protein, switch OFF state (with FMN for OFF switches, without FMN for ON switches); designed switch direction (-1 OFF switch, 1 ON switch): 1; higher = weaker reporter binding
Method in brief: as §1

MS2 coat protein [3] = assay: apparent KD of MS2 coat protein, switch ON state; designed switch direction (-1 OFF switch, 1 ON switch): -1; higher = weaker reporter binding
Method in brief: as §1

MS2 coat protein [4] = assay: apparent KD of MS2 coat protein, switch OFF state (with FMN for OFF switches, without FMN for ON switches); designed switch direction (-1 OFF switch, 1 ON switch): -1; higher = weaker reporter binding
Method in brief: as §1

Row | Sequence | apparent KD of MS2 coat protein (MS2 coat protein [1]) | apparent KD of MS2 coat protein (MS2 coat protein [2]) | apparent KD of MS2 coat protein (MS2 coat protein [3]) | apparent KD of MS2 coat protein (MS2 coat protein [4])
1 | AGAAAUAAAAGAGAGGAUAUCCAAAAUAAAACAUGAGGAUCACCCAUGUGUACGAAAGUACAAUGGGAGAAGGCUCAAAAUAAAG [80% More Helter Skelter 2 + Hairpin] | 1280 nM | 6.54 nM | – | –
2 | UUACAACAUGAGGAUCACCCAUGUAAACCCGACUAAGGAUAUGGAGUGAAAGAUAUCAUCCCAGAAGGUAGAAAUA [Istegeisis] | 48.2 nM | 53.3 nM | – | –
3 | AAAAAAAAAAGUCAGGAUAUACAAAUUUUUACAUGAGGAUCACCCAUGUUAAAGAAAAAAAAAAAGUAGAAGGGACAAAAAAAAAA [Same State 2 - Omei 2] | 11.1 nM | 15.4 nM | – | –
4 | UGGAGACAUGAGGAUCACCCAUGUGAGAAGAGGCGAGGAUAUCGAAAGAAAGAAGAGAAACGAGAAGGCGCGAGAC [salish99-SS1-045] | 25.2 nM | 41.9 nM | – | –
5 | CGAGUACAUGAGGAUCACCCAUGUUAUGAAUUGUCAGGAUAUGGGUAGAGGUGACAUGCGCCAGAAGGGACGUCUG [JR_SS001_Sub1005] | 194 nM | 52.8 nM | – | –
6 | AAAAGACAUGAGGAUCACCCAUGUCAAAAGACAUGAGGAUAUGUACAGACUUCGGUCUGUACAGAAGGCAUGAAAA [SS1 - 1066] | 13.8 nM | 23.6 nM | – | –
7 | AACAAUCUAUCUGAGGAUAUCAUGUAAAAGACAUGAGGAUCACCCAUGUUGCAGGAAACUGCUCAUGAGAAGGCAGAUAGAUUGA [SS2: 1125] | 12.8 nM | 13.8 nM | – | –
8 | AAAAGACAUGAGGAUCACCCAUGUUAAGACGUAGGAGGAUAUGUAUGGAAAACAUGCUGUACAGAAGGCCUGUGUC [SS1 - 26] | 17.8 nM | 20.8 nM | – | –
9 | AGAAAUAAAUGAGAGGAUAUCCUAAAGAAAACAUGAGGAUCACCCAUGUAAAAGAAAAUAAAAUGGGAGAAGGCUCAUAAUAAAG [Starry Same State 2 (jandersonlee round 1 mod)] | 20.8 nM | 35.5 nM | – | –
10 | GUAAGACAUGAGGAUCACCCAUGUAUGCGUCAGCAAGGAUAUGGGAAUAAAAGACAGAAACCAGAAGGUGCUGUUG [Enqudi] | 26.1 nM | 153 nM | – | –
11 | GUGGACAUAGGAUAGGAUAUAUGAAUAAUUACAUGAGGAUCACCCAUGUCCAUUUAUAUGGGAACAUAGAAGGGUUGUAGUUAAC [Mat - Same state - Malcolm Mod - D131] | 117 nM | 81.9 nM | – | –
12 | AGAAAUAAAAGAGAGGAUAUCCAAAAGAAAACAUGAGGAUCACCCAUGUAAAAGAAAAUAAAAUGGGAGAAGGCUCAAAAUAAAGA [Helter Skelter 2] | 21.6 nM | 69.7 nM | – | –
13 | AGCACGUGAUUGGAGGAUAUGUUGUAAGCAACAUGAGGAUCACCCAUGUCUGAGGCUGAAAAGCAGCAGAAGGCCGAUACAACCA [SS2-1.3] | 37.2 nM | 110 nM | – | –
14 | AAUCCAAAUAGUUAGGAUAUGGGAAUUAAGACAUGAGGAUCACCCAUGUCAUUAAAACAAGUUAACCAGAAGGGACAGGGUGAAA [JR_SS002_Sub208] | 14.7 nM | 26.6 nM | – | –
15 | ACAAAACAUGAGGAUCACCCAUGUCGACUAAAUCAAGGAUAUGGGAAUGCGAAAGCAAAGCCAGAAGGUGAGGUCC [Xeorarbiar] | 294 nM | 185 nM | – | –
16 | AAAACACAUGAGGAUCACCCAUGUAUCUGGACCAUAGGAUAUCCGCACCCACUAAGGCGUGGAGAAGGGUGAGCCC [Antisoorti] | 160 nM | 124 nM | – | –
17 | ACAAAACAUGAGGAUCACCCAUGUAUAAAUAUAACAGGAUAUGGGACUGCCGAUUAGGCACCAGAAGGGUUUUCAC [Atearve] | 20.8 nM | 27.3 nM | – | –

Row | Sequence | apparent KD of MS2 coat protein (MS2 coat protein [1]) | apparent KD of MS2 coat protein (MS2 coat protein [2]) | apparent KD of MS2 coat protein (MS2 coat protein [3]) | apparent KD of MS2 coat protein (MS2 coat protein [4])
18 | AAAUUACAUGAGGAUCACCCAUGUAGCGACGUGACAGGAUAUGUGGGUGAAAAUAGCAUGACAGAAGGGUCCCGUA [SameState1 Malc#40] | 57.8 nM | 23.1 nM | – | –
19 | AAAAUACAUGAGGAUCACCCAUGUGAAAAUAUGGGAGGAUAUACAAAAACGAAAGUAAAAGUAGAAGGCCUAAAAA [SS! 1 MT 1] | 37.8 nM | 185 nM | – | –
20 | AAACCACAUGAGGAUCACCCAUGUAAAAAUAUGGGAGGAUAUCGGAAUAAAAUAAAGAAACGAGAAGGCCUAAAAA [59%, Flamingo, 5] | 33.7 nM | 472 nM | – | –
21 | AAAAAAAAUGUGUAGGAUAUCAGUAAAAAUACAUGAGGAUCACCCAUGUUCAAAAAAAAAAAAACUGAGAAGGACACGGAUGGUCC [Design 1] | 35.5 nM | 42.6 nM | – | –
22 | GGAAAACAUGAGGAUCACCCAUGUAAGGAUAUGCAAAAAAAAGGAUAUAGAAGGAAAAGCAGAAGGUACAAAGG [salish99-ex1-26] | – | – | 30.8 nM | 38.2 nM
23 | AAGAAGUCAGGAUAUACAUGAGGAUCACCCAUGUAAAAGAAAGAGGGAAAAGAGAAAAGUAGAAGGGACAAGAA [Arsinoe I] | – | – | 29.1 nM | 32.1 nM
24 | AAAAAGGGAGGAUAUACAUGAGGAUCACCCAUGUAAAACAAAAAAACAAAAAAAAAAAGUAGAAGGCCCAAAAA [Default title] | – | – | 30 nM | 24.6 nM
25 | AAAAACCUAGGAUAUACAUGAGGAUCACCCAUGUAAAGAAACAACAAGGGAAACACACGUAGAAGGAGGAAGAA [JR_Exc003_Sub1204] | – | – | 24.5 nM | 74.8 nM
26 | ACGACUAGAGGAUAUACAUGAGGAUCACCCAUGUAACUGUCAGAAAACUGACGGAGAUGUAGAAGGCUAGUCGA [Mat - Exclusion 3 - Neo mod - D80] | – | – | 16.7 nM | 36.1 nM
27 | AAGAAGUCAGGAUAUGCUGCUCGUCACAAAAGUGAUGAGUAGCAGAAGGGACAUGAGGAUCACCCAUGUAAAGA [JL eternac mod 0] | – | – | 52 nM | 67.5 nM
28 | AUAAAGCGAGGAUAUACAUGAGGAUCACCCAUGUAAAUAAAUAGGAGAGCCACAAUAAGUAGAAGGUGCAAUAA [JR_Exc003_Sub008] | – | – | 54.8 nM | 46.5 nM
29 | AAAUUGUCAGGAUAUCGUAGAAUAGUGAAAAACUAGAGCUACGAGAAGGGACAUGAGGAUCACCCAUGUAAAAC [May 92] | – | – | 43.3 nM | 54.4 nM
30 | AAUAUGUAAGGAUAUGCUGCUCGUCACAAAAGUGAUGAGUAGCAGAAGGUACAUGAGGAUCACCCAUGUAAAGA [JL eternac mod 13] | – | – | 30.9 nM | 52 nM
31 | AGGAAACAUGAGGAUCACCCAUGUGAGGAUAUUGGAAAGAAAAGAAAAGAAAGAAGAAUAAGAAGGCACAAGAA [Merneith] | – | – | 21.8 nM | 18.2 nM
32 | AAUACACAUGAGGAUCACCCAUGUAAGGAUAUCGAAAAAAAACUAAACAAAAAACAAACGAGAAGGUACAAAAA [Exclusion 1 design 4] | – | – | 30.4 nM | 23.9 nM
33 | AAAACGGUAGGAUAUACAAUUGGGAACUAGACCGAAAAACCACAUGAGGAUCACCCAUGUAGAAGGGCCAAAAA [Ex2 Malc#12] | – | – | 39.2 nM | 77.6 nM
34 | AAAAAGAGAGGAUAUACAUGAGGAUCACCCAUGUGAAAGACGAAAAAAAGUCUAAAAAGUAGAAGGCUCAAAAA [65%, Moding Exclusion3-cac2, 12] | – | – | 17.1 nM | 22.5 nM
